Measurements reported in US20120047600A1, “CAFFEOYL COA REDUCTASE” (priority 2010, published 2012).
One block for each molecule: values may come before it.

Experiments:
Format in all cases: biochemical, M. truncatula
Medicago CCR2 = Medicago CCR2 (Medicago truncatula, UniProt G7JEE5); test: CCR enzyme activity assay with purified recombinant Medicago CCR2 expressed in E. coli; details: for CCR2 activity at higher substrate concentrations: substrate inhibition, FIG. 5C,D
Text: (§1) To assess the potential of Medicago CCRs to produce caffeoyl aldehyde, CCR1 and CCR2 were expressed in E. coli and assayed the purified recombinant enzymes with varying concentrations of each of the four potential substrates, 4-coumaroyl-, caffeoyl-, feruloyl- and sinapoyl-CoAs. Briefly, the coding regions of CCR1 and CCR2 were amplified from the original cDNA clones with introduction of NheI enzyme sites before the ATG start codons, a BamHI site after the CCR1 stop codon, and an XhoI site after the CCR2 stop codon. The primers EpCCR1F and EpCCR1R (see Table 3 below) were used for amplification of CCR1, and EpCCR2F and EpCCR2R were used for amplification of CCR2. The PCR products were cloned into T-vector (Promega). After confirmation by sequencing, both CCR sequences were subcloned into pET28a vector (Novagen) and the resulting constructs introduced into E. coli strain BL21 ([…]) (Novagen). The clones with correct inserts were grown at 37° C. until OD600 reached about 0.6, IPTG was added to a final concentration at 0.25 mM, and culture continued at 16° C. overnight. Induced E. coli cells were harvested by centrifugation at 5,000 g for 10 min, frozen in liquid nitrogen and stored at −80° C.
(§2) All enzyme purification steps were carried out at 4° C. The harvested cells were suspended in extraction buffer (100 mM Hepes-NaOH, pH 7.5, 500 mM NaCl, 10 mM imidazole, 10% glycerol, 10 mM mercaptoethanol, 1 mM EDTA, and 1 mM PMSF), sonicated three times for 20 s and centrifuged at 16,000 g for 10 min. The supernatants were mixed with Ni-NTA His-bind resin (Promega). After washing three times in extraction buffer without PMSF, the recombinant proteins were eluted with elution buffer (100 mM Hepes-NaOH, 10% glycerol, 1 mM EDTA, 10 mM mercaptoethanol, and 500 mM imidazole) and the protein stored at −80 ° C. until assay.
(§3) For CCR enzyme activity assays purified CCR protein (2.5 μg) was mixed with assay buffer (100 mM phosphate pH 6.25, 10 mM 2-mercaptoethanol, 0.2 mM NADPH and cinnamoyl CoA substrates at the indicated concentration) in a final volume of 500 μl. The reaction was carried out at 30° C. for 5 min and then terminated with the addition of 70 μL 24% trichloroacetic acid. The reaction mixture was extracted with ethyl acetate (0.6 ml×3) and the combined organic phases dried under a stream of N2. […] Compounds were identified by comparing their UV spectra and retention times with authentic standards of hydroxycinnamoyl aldehydes, and quantified by means of standard curves with correction for recovery of internal standards. Protein concentrations were determined using Bradford reagent (Bio-Rad). For kinetic analysis at various substrate concentrations, enzyme velocity curves were analyzed using Sigmaplot 10 software (Systat Software Inc.).

Medicago CCR1 = Medicago CCR1 (Medicago truncatula, UniProt A0A072VDF2); test: CCR enzyme activity assay with purified recombinant Medicago CCR1 expressed in E. coli; details: for CCR1 activity with substrate: qualitative, FIG. 5A,C
Text: as §1
All enzyme purification steps were carried out at 4° C. […]
as §3, with “μl.” for “μl. The reaction was carried out at 30° C. for 5 min and then terminated with the addition of 70 μL 24% trichloroacetic acid. The reaction mixture was extracted with ethyl acetate (0.6 ml×3) and the combined organic phases dried under a stream of N2.”

[1] = substrate: COc1cc(/C=C/C(=O)SCCNC(=O)CCNC(=O)[C@H](O)C(C)(C)COP(=O)(O)OP(=O)(O)OC[C@H]2O[C@@H](n3cnc4c(N)ncnc43)[C@H](O)[C@@H]2OP(=O)(O)O)ccc1O; test: as above; details: other: CCR1; compound as substrate; mean of three replicate sets of assays
Text: as §1, §2
(§4) For CCR enzyme activity assays purified CCR protein (2.5 μg) was mixed with assay buffer (100 mM phosphate pH 6.25, 10 mM 2-mercaptoethanol, 0.2 mM NADPH and cinnamoyl CoA substrates at the indicated concentration) in a final volume of 500 μl. The reaction was carried out at 30° C. for 5 min and then terminated with the addition of 70 μL 24% trichloroacetic acid. The reaction mixture was extracted with ethyl acetate (0.6 ml×3) and the combined organic phases dried under a stream of N2. The pellet was re-suspended in 50 μL methanol and 25 μL was subjected to HPLC analysis out on a Beckman System Gold HPLC system consisting of a programmable solvent module 126, a System Gold 508 autosampler and a System Gold 168 diode array detector. A Waters Spherisorb ODS-2 5 μm reverse phase column (5 μm particle, 250×4.6 mm) was used. Compounds were identified by comparing their UV spectra and retention times with authentic standards of hydroxycinnamoyl aldehydes, and quantified by means of standard curves with correction for recovery of internal standards. Protein concentrations were determined using Bradford reagent (Bio-Rad). For kinetic analysis at various substrate concentrations, enzyme velocity curves were analyzed using Sigmaplot 10 software (Systat Software Inc.).

[2] = substrate: CC(C)(COP(=O)(O)OP(=O)(O)OC[C@H]1O[C@@H](n2cnc3c(N)ncnc32)[C@H](O)[C@@H]1OP(=O)(O)O)[C@@H](O)C(=O)NCCC(=O)NCCSC(=O)/C=C/c1ccc(O)c(O)c1; test: as above; details: other: CCR1; compound as substrate; mean of three replicate sets of assays
Text: as §1, §2, §4

[3] = substrate: COc1cc(/C=C/C(=O)SCCNC(=O)CCNC(=O)[C@H](O)C(C)(C)COP(=O)(O)OP(=O)(O)OC[C@H]2O[C@@H](n3cnc4c(N)ncnc43)[C@H](O)[C@@H]2OP(=O)(O)O)cc(OC)c1O; test: as above; details: other: CCR1; compound as substrate; mean of three replicate sets of assays
Text: as §1, §2, §4

[4] = substrate: CC(C)(COP(=O)(O)OP(=O)(O)OC[C@H]1O[C@@H](n2cnc3c(N)ncnc32)[C@H](O)[C@@H]1OP(=O)(O)O)[C@@H](O)C(=O)NCCC(=O)NCCSC(=O)/C=C/c1ccc(O)cc1; test: as above; details: other: CCR1; compound as substrate; mean of three replicate sets of assays
Text: as §1, §2, §4

[5] = substrate: COc1cc(/C=C/C(=O)SCCNC(=O)CCNC(=O)[C@H](O)C(C)(C)COP(=O)(O)OP(=O)(O)OC[C@H]2O[C@@H](n3cnc4c(N)ncnc43)[C@H](O)[C@@H]2OP(=O)(O)O)ccc1O; test: CCR enzyme activity assay with purified recombinant Medicago CCR2 expressed in E. coli; details: other: CCR2; compound as substrate; S0.5 given in place of Km for coumaroyl and caffeoyl CoAs (sigmoidal velocity curves)
Text: as §1, §2, §4

[6] = substrate: CC(C)(COP(=O)(O)OP(=O)(O)OC[C@H]1O[C@@H](n2cnc3c(N)ncnc32)[C@H](O)[C@@H]1OP(=O)(O)O)[C@@H](O)C(=O)NCCC(=O)NCCSC(=O)/C=C/c1ccc(O)c(O)c1; test: as above; details: other: CCR2; compound as substrate; S0.5 given in place of Km for coumaroyl and caffeoyl CoAs (sigmoidal velocity curves)
Text: as §1, §2, §4

[7] = substrate: COc1cc(/C=C/C(=O)SCCNC(=O)CCNC(=O)[C@H](O)C(C)(C)COP(=O)(O)OP(=O)(O)OC[C@H]2O[C@@H](n3cnc4c(N)ncnc43)[C@H](O)[C@@H]2OP(=O)(O)O)cc(OC)c1O; test: as above; details: other: CCR2; compound as substrate; S0.5 given in place of Km for coumaroyl and caffeoyl CoAs (sigmoidal velocity curves)
Text: as §1, §2, §4

[8] = substrate: CC(C)(COP(=O)(O)OP(=O)(O)OC[C@H]1O[C@@H](n2cnc3c(N)ncnc32)[C@H](O)[C@@H]1OP(=O)(O)O)[C@@H](O)C(=O)NCCC(=O)NCCSC(=O)/C=C/c1ccc(O)cc1; test: as above; details: other: CCR2; compound as substrate; S0.5 given in place of Km for coumaroyl and caffeoyl CoAs (sigmoidal velocity curves)
Text: as §1, §2, §4

CCR2 activity relative to CCR1 (Medicago CCR2; at 20 μM substrate): almost twice as active
CCR2 activity (Medicago CCR2; at 50 μM substrate): virtually no activity
CCR2 activity at higher substrate concentrations (Medicago CCR2): strongly inhibited
Molecule: COc1cc(/C=C/C(=O)SCCNC(=O)CCNC(=O)[C@H](O)C(C)(C)COP(=O)(O)OP(=O)(O)OC[C@H]2O[C@@H](n3cnc4c(N)ncnc43)[C@H](O)[C@@H]2OP(=O)(O)O)cc(OC)c1O [Sinapoyl CoA]

CCR2 activity at higher substrate concentrations (Medicago CCR2): strongly inhibited
CCR1 activity with substrate (Medicago CCR1): most active
Molecule: COc1cc(/C=C/C(=O)SCCNC(=O)CCNC(=O)[C@H](O)C(C)(C)COP(=O)(O)OP(=O)(O)OC[C@H]2O[C@@H](n3cnc4c(N)ncnc43)[C@H](O)[C@@H]2OP(=O)(O)O)ccc1O [Feruloyl CoA]

CCR1 activity relative to CCR2 activity (Medicago CCR1; at 50 μM substrate (FIG. 5A)): around 7%
CCR1 activity with substrate (Medicago CCR1): very low activity
Molecule: CC(C)(COP(=O)(O)OP(=O)(O)OC[C@H]1O[C@@H](n2cnc3c(N)ncnc32)[C@H](O)[C@@H]1OP(=O)(O)O)[C@@H](O)C(=O)NCCC(=O)NCCSC(=O)/C=C/c1ccc(O)c(O)c1 [Caffeoyl CoA]

B1: Medicago CCR1 (Medicago truncatula) (protein)
chain: MPAATAAAAAESSSVSGETICVTGAGGFIASWMVKLLLEKGYTVRGTLRNPDDPKNGHLKKLEGAKERLTLVKVDLLDLNSVKEAVNGCHGVFHTASPVTDNPEEMVEPAVNGAKNVIIAGAEAKVRRVVFTSSIGAVYMDPNRSVDVEVDESCWSDLEFCKKTKNWYCYGKAVAEAAAWDVAKEKGVDLVVVNPVLVLGPLLQPTINASTIHILKYLTGSAKTYANATQAYVHVRDVALAHILVYEKPSASGRYLCAETSLHRGELVEILAKYFPEYPIPTKCSDEKNPRVKPHIFSNKKLKDLGLEFTPVSECLYETVKSLQDQGHLSIPNKEDSLAVKS
K0.5 [1]: 54.5 ± 3.2 µM
Vmax [1]: 1.64 ± 0.11 µmol/min
kcat [1]: 1 ± 0.0342 s⁻¹
kcat/Km [1]: 19000 ± 1300 M⁻¹ s⁻¹
K0.5 [2]: 161 ± 6.8 µM
Vmax [2]: 0.085 ± 0.0 µmol/min
kcat [2]: 0.0517 ± 0.0012 s⁻¹
kcat/Km [2]: 317 ± 0 M⁻¹ s⁻¹
K0.5 [3]: 7.2 ± 0.4 µM
Vmax [3]: 0.15 ± 0.01 µmol/min
kcat [3]: 0.0917 ± 0.00233 s⁻¹
kcat/Km [3]: 11300 ± 830 M⁻¹ s⁻¹
K0.5 [4]: 56.8 ± 4.7 µM
Vmax [4]: 0.25 ± 0.01 µmol/min
kcat [4]: 0.15 ± 0.00167 s⁻¹
kcat/Km [4]: 2670 ± 1700 M⁻¹ s⁻¹

B2: Medicago CCR2 (Medicago truncatula) (protein)
chain: MPAYDNTSSVSGGDQTVCVTGAGGFIASWLVKLLLERGYTVRGTVRNPEDPKNGHLKELEGARERLTLHKVDLLDLQSIQSVVHGCHGVFHTASPVTDNPDEMLEPAVNGTKNVIIASAEAKVRRVVFTSSIGTVYMDPNTSRDVVVDESYWSDLEHCKNTKNWYCYGKTVAEQSAWDIAKENQVDLVVVNPVVVLGPLLQPTINASTIHILKYLNGAAKTYVNATQSYVHVKDVALAHLLVYETNSASGRYICCETALHRGEVVEILAKYFPEYPLPTKCSDEKNPRVKPYKFSNQKLKDLGLEFTPVKQCLYDTVRSLQEKGHLPIPPMQEDSA
K0.5 [5]: 44.5 ± 4.5 µM
Vmax [5]: 0.48 ± 0.05 µmol/min
kcat [5]: 0.302 ± 0.0333 s⁻¹
kcat/Km [5]: 6670 ± 830 M⁻¹ s⁻¹
K0.5 [6]: 23.4 ± 0.80 µM
Vmax [6]: 0.35 ± 0.01 µmol/min
kcat [6]: 0.15 ± 0.005 s⁻¹
kcat/Km [6]: 8170 ± 330 M⁻¹ s⁻¹
K0.5 [7]: 32.7 ± 3.6 µM
Vmax [7]: 0.32 ± 0.02 µmol/min
kcat [7]: 0.2 ± 0.0183 s⁻¹
kcat/Km [7]: 6170 ± 830 M⁻¹ s⁻¹
K0.5 [8]: 12.4 ± 1.0 µM
Vmax [8]: 0.44 ± 0.01 µmol/min
kcat [8]: 0.29 ± 0.0067 s⁻¹
kcat/Km [8]: 15000 ± 500 M⁻¹ s⁻¹
